According to the supplement of paper PMC7125110:
± gives the standard error. This sample holds only a part of the variants without activity.

B1: glmS ribozyme (parent)
chain: AUAAAAGCGCCAGAACUACAGAAAUGUAGUUGACGAGGAGGAGGUUUAUCGAAUUUUCGGCGGAUGCCUCCAAA

Experiments:
Details in all cases: with glucosamine-6-phosphate
glucosamine-6-phosphate [1] = variants of: B1; assay: self-cleavage kobs at 40 uM GlcN6P; higher = faster cleavage; RNA array
Method in brief: (§1)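 Sequenced MiSeq chips were the platform: E. coli RNA polymerase transcribed barcoded ribozyme variants on them in situ, and a hybridised Cy3 probe tracked these at 37 °C. After glucosamine-6-phosphate (40 μM to 10 mM) in HEPES/KCl/Mg(OAc)2 buffer was flowed in, tiles were imaged over ~14 h. Signals normalised to baseline and to non-cleaving reference variants were reduced to per-tile medians and fit to one- or two-exponential decays to obtain kobs. kcat and KM were derived through weighted Michaelis–Menten fits across concentrations.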

glucosamine-6-phosphate [2] = variants of: B1; assay: self-cleavage kobs at 160 uM GlcN6P; higher = faster cleavage; RNA array
Method in brief: as §1

glucosamine-6-phosphate [3] = variants of: B1; assay: self-cleavage kobs at 640 uM GlcN6P; higher = faster cleavage; RNA array
Method in brief: as §1

glucosamine-6-phosphate [4] = variants of: B1; assay: self-cleavage kobs at 10000 uM GlcN6P; higher = faster cleavage; RNA array
Method in brief: as §1

glucosamine-6-phosphate [5] = variants of: B1; assay: self-cleavage kobs at 2500 uM GlcN6P; higher = faster cleavage; RNA array
Method in brief: as §1

Variant	self-cleavage kobs at 40 uM GlcN6P (glucosamine-6-phosphate [1])	self-cleavage kobs at 160 uM GlcN6P (glucosamine-6-phosphate [2])	self-cleavage kobs at 640 uM GlcN6P (glucosamine-6-phosphate [3])	self-cleavage kobs at 10000 uM GlcN6P (glucosamine-6-phosphate [4])	self-cleavage kobs at 2500 uM GlcN6P (glucosamine-6-phosphate [5])
AUAAAAACGCCAGAACUACAGAAAUGUAGUUGACGAGGAGGAGGUUUCUCGAAUUUUCGGCGGAUGCCUCCAAA [G7A A48C]	< 1e-05 s⁻¹	< 1e-05 s⁻¹	< 1e-05 s⁻¹	< 1e-05 s⁻¹	
AUAAAAACGCCAGAACUACAGAAAUGUAGUUGACGAGGAGGAGGUUUUGCGAAUUUUCGGCGGAUGCCUCCAAA [G7A A48U U49G]	< 1e-05 s⁻¹			< 1e-05 s⁻¹	
AUAAAAACGCCAGAACUACAGAAAUGUAGUUGACGAGGAGGAGGUUUAUGGAAUUUUCGGCGGAUGCCUCCAAA [G7A C50G]	4.24e-05 ± 1.5e-05 s⁻¹	6.67e-05 ± 2e-05 s⁻¹			
AUAAAUGCGCCAGAACUACAGAAAUGUAGUUGACGAGUAGGAGGUUUUUCGGAUUUUCGGCGGAUGCAGCCAAA [A6U G38U A48U A52G C68A U69G]	7.26e-05 ± 3.3e-05 s⁻¹			8.71e-05 ± 2.3e-05 s⁻¹	
AUAAAUGCGCCAGAACUACAGAAAUGUAGUCGACGAGGAGGAGGUUUAUGGAAUUUUCGGCGGAUGCCUCCAAA [A6U U31C C50G]	7.08e-05 ± 1.6e-05 s⁻¹			3.4e-05 ± 1.4e-05 s⁻¹	
AUAAAAAGCGCCAGAACACAGAAAUGUAGUAGACGAGGAGGAGGUUUAUCGAAUUUUCGGCGGAUGCCUCCAAA [G7A C8G G9C C10G A12C G13A A14G C16A U17C U31A]	0.000115 ± 4.2e-05 s⁻¹			0.00555 ± 0.0017 s⁻¹	
AUAAAUGCGCCAGAACUACAGAAAUGUAGUUGACGAGUAGGAGGUUUAUCGAAUUUUCGGCGGAUGCCUCAAAA [A6U G38U C71A]	< 1e-05 s⁻¹				
AUAAAAACGCCAUCUCUACAGAAAUGUAGUUGACAAGGAGGAGGUUUAUCGAAUCUUCGGCGGGUGCCUCAAAA [G7A G13U A14C A15U G35A U55C A64G C71A]	< 1e-05 s⁻¹			< 1e-05 s⁻¹	
AUAAAUGCGCCAGAACUACAGAAAUGUAGUUGACGAGGAGGAGGUUUAUCGAAUUUUCCGCGGAUGCCUCGAAA [A6U G59C C71G]	< 1e-05 s⁻¹	< 1e-05 s⁻¹	< 1e-05 s⁻¹	< 1e-05 s⁻¹	< 1e-05 s⁻¹
AUAAAAACGCCAGAACUACAGAAAUGUAGUUGACGAGGAGGAGGUUUAUCGGAUUUUCGGCGGAUGCCUCCAAA [G7A A52G]	< 1e-05 s⁻¹		< 1e-05 s⁻¹	< 1e-05 s⁻¹	
AUAAAUGCGCCAGAACUACAGAAAUGUAGUUGACGAGGAGGAGGUUUAUCGAAUCUUCGGCGGAUGCCUCAAAA [A6U U55C C71A]	< 1e-05 s⁻¹				
AUAAAUGCGCCAGAACUACAGAAAUGUAGUUGACGAGGAGGAGGUGUAUCGAAUUUUAGGCGGAUGCCUCCAAA [A6U U46G C58A]	< 1e-05 s⁻¹				
AUAAAAACGCCAGAACUACAGAAAUGUAGUUAACGAGGAGGAGGUUUAUCAAAUUUUCGGCCGAUGCAUCCAAA [G7A G32A G51A G62C C68A]	< 1e-05 s⁻¹	< 1e-05 s⁻¹			
AUAAAAACGCCUGAACUACAGAAAUGUAGUUGACGAGGAGGAGGUUUAUCGAAUUUUCGGCGGAUGCCUCCAAA [G7A A12U]	< 1e-05 s⁻¹	< 1e-05 s⁻¹		7.91e-05 ± 2e-05 s⁻¹	2.22e-05 ± 8.3e-06 s⁻¹
AUAAAUGCGCCAGAACUACAGAAAUGUAGUUGACGAGGACGAGGUUUAUCGAAUUUUCGGCGGAUGCCUCCAAA [A6U G40C]	< 1e-05 s⁻¹				
AUAAAAACGCCAAAACUACAGAAAUGUAGUUGACGAGGAGGAGGUUUAUCGAAUUUUCGGCGGAUGCCUCCAAA [G7A G13A]	< 1e-05 s⁻¹	< 1e-05 s⁻¹	< 1e-05 s⁻¹	< 1e-05 s⁻¹	

Variant	self-cleavage kobs at 40 uM GlcN6P (glucosamine-6-phosphate [1])	self-cleavage kobs at 160 uM GlcN6P (glucosamine-6-phosphate [2])	self-cleavage kobs at 640 uM GlcN6P (glucosamine-6-phosphate [3])	self-cleavage kobs at 10000 uM GlcN6P (glucosamine-6-phosphate [4])	self-cleavage kobs at 2500 uM GlcN6P (glucosamine-6-phosphate [5])
AUAAAAACGCCAUAACUACAGAAAUGUAGUUGACGAGGAGGAGGUUUAUCGAAUUUUCGGCGGAUGCCUCCAAA [G7A G13U]	< 1e-05 s⁻¹	< 1e-05 s⁻¹	< 1e-05 s⁻¹		
AUAAAAACGCCAGAACUACAGAAAUGUAGUUGCCGAGGAGGAGGUUUAUCGAAUUUCCGGCGAAUGCCUCCAAA [G7A A33C U57C G63A]	< 1e-05 s⁻¹				
AUAAAAACGCCAGAACUACAGAAAUGUACUUGACGAGGAGGAGGUUUAUCGAAUUUUCGGCGGAUGCCUCCAAA [G7A G29C]	< 1e-05 s⁻¹				< 1e-05 s⁻¹
AUAAAAACGCCAGAACUACAGAAAUGUAGUUGACGAGGAGGAGGUUUAUCGAAUUUUCGGCGGAUGUCUCCAAA [G7A C67U]	< 1e-05 s⁻¹	< 1e-05 s⁻¹	< 1e-05 s⁻¹		
AUAAAAACGCCAUAACUACAGAAAUGUAGUUGACGAGGAGGAGGUUUAUCGAAUUUUCGGCGGAUGCCGCAAAA [G7A G13U U69G C71A]	0.00031 ± 7.3e-05 s⁻¹			0.000516 ± 0.00016 s⁻¹	
AUAAAAACGCCAGAACUACAGAAAUGUAGUUGACGAGGAGGAGGUUUAUCGUAUUUUCGGCGCAUGCCUCCAAA [G7A A52U G63C]	< 1e-05 s⁻¹	< 1e-05 s⁻¹	< 1e-05 s⁻¹		< 1e-05 s⁻¹
AUAAAAACGCCAGAACUACAGAAAUGUAGUUAACGAGGAGGAGGAUUAUCGGAUUUUCGGCGGAGGCCUCCAAA [G7A G32A U45A A52G U65G]	< 1e-05 s⁻¹				
AUAAAUGCGCCAGAACUACAGAAAUGUAGUUGACGAGGAGCAGGUUUAUCGAAUUUUCGGCGGAUGCCUCCAAA [A6U G41C]	< 1e-05 s⁻¹	< 1e-05 s⁻¹		< 1e-05 s⁻¹	< 1e-05 s⁻¹
AUAAAUGCGCCAGAACUACAGAAAUGUAGUUGACGAGAAUGAGGUUUAUCCAAUUUUCGGCGGAUGCCUCCAAA [A6U G38A G40U G51C]	< 1e-05 s⁻¹				
AUAAAAACGCCAGAACUACAGAAAUGUAGUUGACGAGGAGGAGGUUUAUCGACUUUUCGGCGGAUGCCUCCAAA [G7A A53C]	< 1e-05 s⁻¹	< 1e-05 s⁻¹	< 1e-05 s⁻¹		< 1e-05 s⁻¹
AUAAAAACUCCAGAAAUACAGAAAUGUAGUUGACGAUGAGGAGGUUUAUCGAAUUUUCGGCGGACGCCUCCAAA [G7A G9U C16A G37U U65C]	< 1e-05 s⁻¹				
AUAAAAACGCCAGAACUACAGAAAUGUAGUUCACGAGGAGGAGGUUUAUCGAAUUUUCGGCGGAUGCCUCCAAA [G7A G32C]	< 1e-05 s⁻¹	< 1e-05 s⁻¹	< 1e-05 s⁻¹	< 1e-05 s⁻¹	< 1e-05 s⁻¹
AUAAAAACGCCAGAACUACAGAAAUGUAGUUAACGAGGAGGAGGUUUAUCGAAUUUUAGGCGGAUGCCUCCAAA [G7A G32A C58A]	< 1e-05 s⁻¹			< 1e-05 s⁻¹	
AUAAAUGCGCCAGAACUACAGAAAUGUAGUUGACGAGGAGGAGGUUUAUCUAAUUUUCGGCGGAUGCCUCCAAA [A6U G51U]	< 1e-05 s⁻¹	< 1e-05 s⁻¹	< 1e-05 s⁻¹	< 1e-05 s⁻¹	< 1e-05 s⁻¹
AUAAAUGCGCCAGAACUACAGAAAUGUAGUUGACGAGAAGGAGGUUUAUCGAAUUUUCGGCGGAUGCCUCCAAA [A6U G38A]	< 1e-05 s⁻¹				
